Test results published in patent US20230174642A1, “AFFINITY-MATURATED ANTI-ASIC1a ANTIBODIES” (SHANGHAITECH UNIVERSITY, priority 2019, published 2023).

T1: human ASIC1a (hASIC1a-eYFP) (Homo sapiens, UniProt P78348)
T1 construct: expressed in transfected cells; host or cells: CHO-K1 (transient)
T1 sequence (P78348 1-528): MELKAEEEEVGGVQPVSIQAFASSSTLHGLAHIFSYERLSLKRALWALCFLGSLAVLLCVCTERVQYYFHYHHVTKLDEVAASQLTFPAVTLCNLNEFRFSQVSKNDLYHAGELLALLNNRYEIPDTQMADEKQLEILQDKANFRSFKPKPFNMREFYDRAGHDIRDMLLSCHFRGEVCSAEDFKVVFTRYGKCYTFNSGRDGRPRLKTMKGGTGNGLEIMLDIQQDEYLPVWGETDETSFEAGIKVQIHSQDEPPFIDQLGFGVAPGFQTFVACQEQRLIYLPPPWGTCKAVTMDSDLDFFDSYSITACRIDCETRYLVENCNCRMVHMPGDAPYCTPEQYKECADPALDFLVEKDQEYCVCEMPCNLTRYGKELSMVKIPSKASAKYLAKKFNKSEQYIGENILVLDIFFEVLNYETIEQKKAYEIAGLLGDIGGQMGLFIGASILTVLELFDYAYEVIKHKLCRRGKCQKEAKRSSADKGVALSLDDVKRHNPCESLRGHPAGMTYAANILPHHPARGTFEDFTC

T2: human ASIC1b (hASIC1b-eYFP) (Homo sapiens, UniProt P78348)
T2 construct: expressed in transfected cells; host or cells: CHO-K1 (transient)
T2 sequence (P78348 1-562 isoform P78348-3): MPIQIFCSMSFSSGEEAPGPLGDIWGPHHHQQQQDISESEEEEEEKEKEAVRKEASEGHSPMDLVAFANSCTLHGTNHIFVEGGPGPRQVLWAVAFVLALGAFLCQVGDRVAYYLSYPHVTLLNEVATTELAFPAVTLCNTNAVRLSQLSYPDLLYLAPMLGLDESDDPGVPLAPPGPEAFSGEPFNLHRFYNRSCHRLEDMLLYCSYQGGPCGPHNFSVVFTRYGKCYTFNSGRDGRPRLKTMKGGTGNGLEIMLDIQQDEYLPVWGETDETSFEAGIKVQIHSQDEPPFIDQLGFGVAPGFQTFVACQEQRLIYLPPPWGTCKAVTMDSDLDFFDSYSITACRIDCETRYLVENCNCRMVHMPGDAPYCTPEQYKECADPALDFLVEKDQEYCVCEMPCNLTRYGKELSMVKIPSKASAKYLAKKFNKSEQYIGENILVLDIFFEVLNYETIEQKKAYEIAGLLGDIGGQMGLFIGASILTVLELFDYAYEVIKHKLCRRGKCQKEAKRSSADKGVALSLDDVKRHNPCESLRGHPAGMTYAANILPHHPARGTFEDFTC

T3: human ASIC2a (hASIC2a-eYFP) (Homo sapiens, UniProt Q16515)
T3 construct: expressed in transfected cells; host or cells: CHO-K1 (transient)
T3 sequence (Q16515 1-512): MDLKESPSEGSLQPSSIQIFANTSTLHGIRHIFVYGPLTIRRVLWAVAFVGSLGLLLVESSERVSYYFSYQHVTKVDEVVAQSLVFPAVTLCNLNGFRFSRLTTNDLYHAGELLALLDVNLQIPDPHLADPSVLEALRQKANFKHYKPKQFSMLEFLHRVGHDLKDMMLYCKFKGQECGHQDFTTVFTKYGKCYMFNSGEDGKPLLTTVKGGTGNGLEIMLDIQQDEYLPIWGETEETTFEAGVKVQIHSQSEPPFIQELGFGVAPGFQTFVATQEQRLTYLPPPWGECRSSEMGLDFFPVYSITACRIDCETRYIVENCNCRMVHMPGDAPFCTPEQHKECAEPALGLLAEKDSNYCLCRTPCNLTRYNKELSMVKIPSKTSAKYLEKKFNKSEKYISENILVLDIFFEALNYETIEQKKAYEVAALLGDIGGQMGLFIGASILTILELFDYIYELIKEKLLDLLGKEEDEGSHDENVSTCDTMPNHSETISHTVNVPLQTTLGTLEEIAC

T4: human ASIC3a (hASIC3a-eYFP) (Homo sapiens, UniProt Q9UHC3)
T4 construct: expressed in transfected cells; host or cells: CHO-K1 (transient)
T4 sequence (Q9UHC3 1-531): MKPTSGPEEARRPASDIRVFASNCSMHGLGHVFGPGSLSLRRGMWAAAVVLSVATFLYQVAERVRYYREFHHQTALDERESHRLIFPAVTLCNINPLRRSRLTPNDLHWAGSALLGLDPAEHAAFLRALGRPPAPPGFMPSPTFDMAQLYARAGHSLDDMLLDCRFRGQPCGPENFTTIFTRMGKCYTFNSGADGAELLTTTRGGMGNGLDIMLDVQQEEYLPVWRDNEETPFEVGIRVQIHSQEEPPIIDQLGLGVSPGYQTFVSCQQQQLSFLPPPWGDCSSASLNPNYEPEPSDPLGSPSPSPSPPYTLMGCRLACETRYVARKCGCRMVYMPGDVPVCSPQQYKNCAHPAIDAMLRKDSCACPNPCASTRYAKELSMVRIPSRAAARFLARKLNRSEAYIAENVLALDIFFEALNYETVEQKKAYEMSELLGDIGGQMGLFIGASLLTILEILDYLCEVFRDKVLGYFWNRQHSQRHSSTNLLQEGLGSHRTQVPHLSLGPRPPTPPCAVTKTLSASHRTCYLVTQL


Tests used:
[1] = biological target: T1, human ASIC1a (hASIC1a-eYFP); assay: FACS-based binding assay, transiently transfected CHO-K1 cells (species selectivity); settings: double positive population
Method: To investigate the species selectivity of ASC06-IgG1 affinity-matured antibodies, plasmids encoding fusion proteins of eYFP with […] homologs of ASIC1a were constructed. These plasmids included those encoding human ASIC1a (hASIC1a-eYFP), mouse ASIC1a (mASIC1a-eYFP), and rat ASIC1a (rASIC1a-eYFP). CHO-K1 cells were transiently transfected with the ASIC1a-eYFP plasmids, and a fluorescence activated cell sorting (FACS)-based binding assay was carried out to determine binding to the homologs or isoforms of ASIC1a expressed on the cell surface. An isotype control was used as a negative control for binding (NC). ASC06-IgG1 was used as a positive control. Summarily, the CHO-K1 cells expressing the ASIC1a-eYFP (green) homologs were stained with the indicated antibody (red) and subjected to FACS.

[2] = biological target: T2, human ASIC1b (hASIC1b-eYFP); assay: FACS-based binding assay, transiently transfected CHO-K1 cells (isotype selectivity)
From the text: (§1) To examine the ASIC isotype selectivity of ASC06-IgG1 affinity-matured antibodies, plasmids encoding fusion proteins of eYFP with isoforms of […] were constructed. These plasmids included those encoding human ASIC1b (hASIC1b-eYFP), human ASIC2a (hASIC2a-eYFP), and human ASIC3a (hASIC3a-eYFP). CHO-K1 cells were transiently transfected with these plasmids and used in a FACS-based binding assay disclosed herein. Binding of ASC06-IgG1 to CHO-K1 cells expressing human ASIC1a-eYFP (hASIC1a-eYFP) was used as a positive control (data not shown and FIG. 2), and an isotype control was used as a negative control for binding (NC).

[3] = biological target: T3, human ASIC2a (hASIC2a-eYFP); assay: as above
From the text: as §1

[4] = biological target: T4, human ASIC3a (hASIC3a-eYFP); assay: as above
From the text: as §1

Molecule | binding to cells expressing hASIC1a-eYFP [1] | binding to the hASIC1b isoform [2] | binding to the hASIC2a isoform [3] | binding to the hASIC3a isoform [4]
ASC06-01-IgG1: affinity-matured ASC06 derivative, VH-CDR3 DSYFGYSKGD (SEQ ID NO: 11) (antibody, V domains shown) VH: QVQLQQSGGGLVQPGGSLRLSCAASGFTFSSYAMSWVRQAPGKGLEWVSAISGSGGSTYYADSVKGRFTISRDNSKNTLYLQMNSLRAEDTAVYYCAKDSYFGYSKGDWGQGTLVTVSS VL: QSALTQPASVSGSPGQSITISCTGTSSDVGAYNYVSWYQQQPGKAPKLMIYGVSNRPSGVSNRFSGSKSGNAASLTISGLQAEDEADYYCSSYTSSSTYVFGTGTKLTVLG | bound | no detectable binding | no detectable binding | no detectable binding
ASC06-04-IgG1: affinity-matured ASC06 derivative, VH-CDR3 DSFYGRAKGV (SEQ ID NO: 17) (antibody, V domains shown) VH: QVQLQQSGGGLVQPGGSLRLSCAASGFTFSSYAMSWVRQAPGKGLEWVSAISGSGGSTYYADSVKGRFTISRDNSKNTLYLQMNSLRAEDTAVYYCAKDSFYGRAKGVWGQGTLVTVSS VL: QSALTQPASVSGSPGQSITISCTGTSSDVGAYNYVSWYQQQPGKAPKLMIYGVSNRPSGVSNRFSGSKSGNAASLTISGLQAEDEADYYCSSYTSSSTYVFGTGTKLTVLG | bound | no detectable binding | no detectable binding | no detectable binding
ASC06-03-IgG1: affinity-matured ASC06 derivative, VH-CDR3 DSFYGRAKGS (SEQ ID NO: 15) (antibody, V domains shown) VH: QVQLQQSGGGLVQPGGSLRLSCAASGFTFSSYAMSWVRQAPGKGLEWVSAISGSGGSTYYADSVKGRFTISRDNSKNTLYLQMNSLRAEDTAVYYCAKDSFYGRAKGSWGQGTLVTVSS VL: QSALTQPASVSGSPGQSITISCTGTSSDVGAYNYVSWYQQQPGKAPKLMIYGVSNRPSGVSNRFSGSKSGNAASLTISGLQAEDEADYYCSSYTSSSTYVFGTGTKLTVLG | bound | no detectable binding | no detectable binding | no detectable binding
ASC06-IgG1: parental (WT) ASIC1a-specific antagonist antibody; VL SEQ ID NO: 2, VH SEQ ID NO: 7, VH-CDR3 DSFYGYSKGD (antibody, V domains shown, IgG1 constant regions; Amino acid sequence VH of ASC06; Amino acid sequence VL of ASC06) VH: QVQLQQSGGGLVQPGGSLRLSCAASGFTFSSYAMSWVRQAPGKGLEWVSAISGSGGSTYYADSVKGRFTISRDNSKNTLYLQMNSLRAEDTAVYYCAKDSFYGYSKGDWGQGTLVTVSS VL: QSALTQPASVSGSPGQSITISCTGTSSDVGAYNYVSWYQQQPGKAPKLMIYGVSNRPSGVSNRFSGSKSGNAASLTISGLQAEDEADYYCSSYTSSSTYVFGTGTKLTVLG | bound | no detectable binding | no detectable binding | no detectable binding
ASC06-02-IgG1: affinity-matured ASC06 derivative, VH-CDR3 DSFFGRAKGS (SEQ ID NO: 13) (antibody, V domains shown) VH: QVQLQQSGGGLVQPGGSLRLSCAASGFTFSSYAMSWVRQAPGKGLEWVSAISGSGGSTYYADSVKGRFTISRDNSKNTLYLQMNSLRAEDTAVYYCAKDSFFGRAKGSWGQGTLVTVSS VL: QSALTQPASVSGSPGQSITISCTGTSSDVGAYNYVSWYQQQPGKAPKLMIYGVSNRPSGVSNRFSGSKSGNAASLTISGLQAEDEADYYCSSYTSSSTYVFGTGTKLTVLG | bound | no detectable binding | no detectable binding | no detectable binding
